The text below walks through data of article PMC12072009, “Catalytic Efficiency Improvement in Cellobiohydrolase I by Cross-Species Domain Exchange Engineering” (International Journal of Molecular Sciences, 2025).

What is called Km is the concentration of substrate that gives half-maximal velocity. The kcat is the maximal rate divided by the concentration of active sites. A word on the kcat/Km: it is the turnover number divided by the Michaelis constant.

Holding throughout (conditions): 50 mM citric acid sodium citrate buffer, pH 4.8, 50 °C
The subject of one data set is T1, CT-CBH.
T1 construct: gene cbh1; single-chain fusion: C. thermophilum CBHI (GenBank AM711862.1) with its CBM replaced by that of T. reesei CBHI; secreted from T. reesei Tu-6 delta-ku70
The data set is described as follows: fluorescence of released methylumbelliferone (ex […], em […] nm), Michaelis-Menten nonlinear fit. Type of data set: biochemical, Thermochaetoides thermophila; Trichoderma reesei.

The subject of a further data set is T2, TC-CBH.
T2 construct: gene cbh1; single-chain fusion: T. reesei CBHI with its CBM replaced by that of C. thermophilum CBHI (GenBank AM711862.1); secreted from T. reesei Tu-6 delta-ku70
The description is as above. Type of data set: biochemical, Trichoderma reesei; Thermochaetoides thermophila.

Substrate in data set [1]: Cc1cc(=O)oc2cc(O[C@@H]3O[C@H](CO)[C@@H](O[C@@H]4O[C@H](CO)[C@@H](O)[C@H](O)[C@H]4O)[C@H](O)[C@H]3O)ccc12
Nature of the data set: purified protein. Type of data set: biochemical, Thermochaetoides thermophila.

Substrate in data set [2]: Cc1cc(=O)oc2cc(O[C@@H]3O[C@H](CO)[C@@H](O[C@@H]4O[C@H](CO)[C@@H](O)[C@H](O)[C@H]4O)[C@H](O)[C@H]3O)ccc12
Nature of the data set: purified protein. The data set is classed as biochemical, Trichoderma reesei.

For `Cc1cc(=O)oc2cc(O[C@@H]3O[C@H](CO)[C@@H](O[C@@H]4O[C@H](CO)[C@@H](O)[C@H](O)[C@H]4O)[C@H](O)[C@H]3O)ccc12` [MUC], the Km in the data set on CT-CBH is 700 µM; in the data set on TC-CBH it was 1200 µM.

B1: C-CBH (Chaetomium thermophilum CBHI) (Thermochaetoides thermophila) (protein)
chain: QQACSLTAENHPSLTWKRCTSGGSCSTVNGAVTIDANWRWTHTVSGSTNCYTGNQWDTSLCTDGKSCAQTCCVDGADYSSTYGITTSGDSLNLKFVTKHQYGTNVGSRVYLMENDTKYQMFELLGNEFTFDVDVSNLGCGLNGALYFVSMDADGGMSKYSGNKAGAKYGTGYCDAQCPRDLKFINGEANVGNWTPSTNDANAGFGRYGSCCSEMDVWEANNMATAFTPHPCTTVGQSRCEADTCGGTYSSDRYAGVCDPDGCDFNAYRQGDKTFYGKGMTVDTNKKMTVVTQFHKNSAGVLSEIKRFYVQDGKIIANAESKIPGNPGNSITQEYCDAQKVAFSNTDDFNRKGGMAQMSKALAGPMVLVMSVWDDHYANMLWLDSTYPIDQAGAPGAERGACPTTSGVPAEIEAQVPNSNVIFSNIRFGPIGSTVPGLDGSNPGNPTTTVVPPASTSTSRPTSSTSSPVSTPTGQPGGCTTQKWGQCGGIGYTGCTNCVAGTTCTQLNPWYSQCL
notes: full length: catalytic domain, linker, CBM; secreted from T. reesei Tu-6 delta-ku70 (common signal peptide for all four constructs, cDNA1 promoter); no tag stated; concentrated by 30 kDa ultrafiltration
Regarding B1, in “purified protein [1]”, the Michaelis-Menten constant (Km) is 1100 µM, the kcat came out at 1.56 s⁻¹ and the kcat/Km came out at 1480 M⁻¹ s⁻¹.

B2: T-CBH (Trichoderma reesei CBHI) (Trichoderma reesei QM6a) (protein)
chain: QSACTLQSETHPPLTWQKCSSGGTCTQQTGSVVIDANWRWTHATNSSTNCYDGNTWSSTLCPDNETCAKNCCLDGAAYASTYGVTTSGNSLSIGFVTQSAQKNVGARLYLMASDTTYQEFTLLGNEFSFDVDVSQLPCGLNGALYFVSMDADGGVSKYPTNTAGAKYGTGYCDSQCPRDLKFINGQANVEGWEPSSNNANTGIGGHGSCCSEMDIWEANSISEALTPHPCTTVGQEICEGDGCGGTYSDNRYGGTCDPDGCDWNPYRLGNTSFYGPGSSFTLDTTKKLTVVTQFETSGAINRYYVQNGVTFQQPNAELGSYSGNELNDDYCTAEEAEFGGSSFSDKGGLTQFKKATSGGMVLVMSLWDDYYANMLWLDSTYPTNETSSTPGAVRGSCSTSSGVPAQVESQSPNAKVTFSNIKFGPIGSTGNPSGGNPPGGNPPGTTTTRRPATTTGSSPGPTQSHYGQCGGIGYSGPTVCASGTTCQVLNPYYSQCL
notes: full length: catalytic domain, linker, CBM; secreted from T. reesei Tu-6 delta-ku70 (cDNA1 promoter); no tag stated; concentrated by 30 kDa ultrafiltration
Regarding B2, in “purified protein [2]”, the Km turned out to be 1300 µM, the kcat was 1.29 s⁻¹ and the kcat/Km amounted to 1030 M⁻¹ s⁻¹.
